Data on one protein can be found in publication PMC8229532 (Structure (London, England : 1993), 2010).

The data set deals with the molecule itself. Kind of data set: crystal structure.

B1: Phd (prevents host death) antitoxin of bacteriophage P1 (natural protein, UniProt Q06253 1-73, looked up)
chain: MQSINFRTARGNLSEVMNNVEAGEEVEITRRGREPAVIASKATFEAYKKAALDAEFASLFDTLDSTNKELVNR
modifications: selenomethionine (expressed in MJ9 minimal medium supplemented with selenomethionine)
On to B1, for which the binding result is “binds”.
